Positions count from the first letter of the chain named. Numbers in names are those of the source.
B1: Blue-light Inhibitor of Cryptochromes 1 (BIC1) triple mutant C99A, C105A, C136A (natural protein, Arabidopsis thaliana, UniProt Q9LXJ1 1-140, looked up)
chain: MMNIDDTTSPMAHPIGPSQPPSDQTKQDPPSLPQEAASSVSADKKDLALLEEKPKQSQEEDRVDTGRERLKKHRREIAGRVWIPEIWGQEELLKDWIDASTFDTALVPAGISSARTALVEEARRAASASGGLHNRALILR
notes: BIC1, Arabidopsis thaliana, synthetic gene with three cysteine-to-alanine substitutions; Cloned in pET28a(+) (BioCat GmbH); About 20 kDa by LILBID-MS; also called BIC1^3CA; source: E. coli BL21 Star (DE3), purified (Ni-NTA, SEC on Superdex 75)
B2: Arabidopsis thaliana wild-type BIC1 protein (natural protein, UniProt Q9LXJ1 1-140, looked up)
chain: B1 chain with A99C, A105C, A136C
notes: BIC1, Arabidopsis thaliana, wild type with its cysteines; The construct and its host are not described; the methods say in general that recombinant proteins carried an N-terminal His6-tag; The dimer is held by disulfide bonds
B3: Arabidopsis thaliana CRY1 PHR domain (residues 1-509) (domain or fragment, UniProt Q43125 1-509, looked up)
chain: MSGSVSGCGSGGCSIVWFRRDLRVEDNPALAAAVRAGPVIALFVWAPEEEGHYHPGRVSRWWLKNSLAQLDSSLRSLGTCLITKRSTDSVASLLDVVKSTGASQIFFNHLYDPLSLVRDHRAKDVLTAQGIAVRSFNADLLYEPWEVTDELGRPFSMFAAFWERCLSMPYDPESPLLPPKKIISGDVSKCVADPLVFEDDSEKGSNALLARAWSPGWSNGDKALTTFINGPLLEYSKNRRKADSATTSFLSPHLHFGEVSVRKVFHLVRIKQVAWANEGNEAGEESVNLFLKSIGLREYSRYISFNHPYSHERPLLGHLKFFPWAVDENYFKAWRQGRTGYPLVDAGMRELWATGWLHDRIRVVVSSFFVKVLQLPWRWGMKYFWDTLLDADLESDALGWQYITGTLPDSREFDRIDNPQFEGYKFDPNGEYVRRWLPELSRLPTDWIHHPWNAPESVLQAAGIELGSNYPLPIVGLDEAKARLHEALSQMWQLEAASRAAIENGSEEG
notes: Cryptochrome 1 (CRY1), Arabidopsis thaliana, photolyase homology region (PHR) domain, residues 1-509; Cloned in pACYCDuet-1; Monomer about 59 kDa by LILBID-MS; also called wild-type CRY1; source: E. coli BL21 Star (DE3), purified (Ni-NTA, SEC on Superdex 200)
B4: Arabidopsis thaliana CRY1 PHR domain (residues 1-509) L407F mutant (domain or fragment, UniProt Q43125 1-509, looked up)
chain: B3 chain with L407F
notes: Cryptochrome 1 (CRY1), Arabidopsis thaliana, PHR domain, residues 1-509, with L407F; Cloned in pACYCDuet-1; also called CRY1^L407F; constitutively active CRY1; source: E. coli BL21 Star (DE3), purified (Ni-NTA, SEC on Superdex 200)

Legend:
[1] = target: B3; assay: native MS; quantitative LILBID-MS (qLILBID-MS), label-free, under blue light; KD from dissociation plots; conditions: both partners purified
[2] = target: B3; assay: native MS; quantitative LILBID-MS (qLILBID-MS), label-free, in the dark; KD from dissociation plots; conditions: both partners purified
[3] = target: B4; assay: as above; conditions: both partners purified
[4] = target: the molecule itself; assay: not stated; wild-type BIC1, disulfide bond-mediated dimerization (Extended Data Fig. 5a, b); method not given
[5] = target: the molecule itself; assay: native MS; time-resolved nESI-MS, 10 scans per second, CRY1 15 µM, blue light, room temperature, no ATP; reversible two-step model (monomer to dimer, dimer to tetramer) fitted with DynaFit
[6] = target: the molecule itself; assay: native MS; LILBID-MS, under blue light (455 nm LED, 100 µmol m-2 s-1), 20 °C, 200 mM ammonium acetate, 10 mM DTT, pH 7.4; BIC1 equimolar, added before illumination or to pre-illuminated tetrameric CRY1
[7] = target: the molecule itself; assay: native MS; time-resolved nESI-MS, CRY1 15 µM, blue light, room temperature, with 100 µM ATP; reversible two-step model (monomer to dimer, dimer to tetramer)
[8] = target: the molecule itself; assay: SEC; analytical SEC, Superdex 200 10/300 GL, 10 °C, 30 µM protein, ß-mercaptoethanol, kept in darkness (red safe light)

## B1
[1]
  Kd: 0.13 ± 0.09 µM
[2]
  Kd: ~1.2 µM
[3]
  Kd: 0.1 ± 0.03 µM

## B2
[4]
  stoichiometry N: 2

## B3
[5]
  half-life of tetramer formation (single-exponential fit): ~18 s
[6]
  stoichiometry N: 4
[7]
  fold change of the rate of tetramer formation with 100 µM ATP against no ATP: ~4 fold
  fold slowing of dimer dissociation with 100 µM ATP against no ATP: > 10 fold
  fold slowing of tetramer dissociation with 100 µM ATP against no ATP: ~2 fold

## B4
[8]
  stoichiometry N: 4
